From patent publication US20240285784A1, “PEPTIDIC CONJUGATES OF SN38 USEFUL IN THE TREATMENT OF CANCER” (FUNDACIÓ INSTITUT DE RECERCA BIOMÈDICA (IRB BARCELONA), priority 2020, published 2024)
Converted amounts (≈) assume the structure as drawn. Where two headings read alike, the source gives them in different places. *1 amine or outer side, *2 acyl side, *3 side chain or, on linkers, in order; H or OH if unused. Where a SMILES comes first, the peptide text is derived from it. Bridges are numbered along the chain shown (N, C = ends). [ ]: non-standard residue; d: D form. The star is where a group is joined. X1 = CCc1c2c(nc3ccc(O)cc13)-c1cc3c(c(=O)n1C2)COC(=O)[C@@]3(CC)OC(=O)CCCCn1cc(CCCC(=O)NCCCOCCOCCOCCCN*)nn1; Suc = O=C(CCC(=O)[*:2])[*:1]; Dap = NC[C@H](N)C(=O)O

Columns and labels:
[1] = Evaluation of solubility in water; assay type: physicochemical
Procedure: 25 mg of SN38-linker A-MiniAp4 were dissolved in H2O, showing a completely transparent solution. This means that SN38-linker A-MiniAp4 has a solubility in water higher than 5 mg/mL, more than 400-fold the solubility in water described for SN38 (Mol. Pharmaceutics, 2016, 13, 379-390).

[2] = Turbidimetric aqueous solubility; assay type: physicochemical; conditions: for solubility at 2 hr: kinetic from dmso stock, 0.01 M phosphate buffered saline pH 7.4, 1% DMSO, 2 hr at 37° C., absorbance 620 nm
Procedure: Each test compound concentration was then further diluted 1 in 100 in buffer (0.01 M phosphate buffered saline pH 7.4) so that the final DMSO concentration was 1% and the final test compound concentrations were 1, 3, 10, 30 and 100 μM. The experiment was performed at 37° C. and each concentration was incubated in 7 replicate wells. The plates were incubated for 2 hr at 37° C. before the absorbance was measured at 620 nm.

[3] = Maximum tolerated dose, single intravenous injection; assay type: in vivo, mice; conditions: mouse, in vivo; single intravenous injection, athymic nude mice, observed 14 days
Procedure: (§1) To evaluate the toxicity of irinotecan and SN38-linker A-MiniAp4 (Ia) (also named G2B-001) in athymic nude mice (10 week old; 8 mice per group) first the maximum tolerated dose (MTD) of SN38-linker A-MiniAp4 (Ia) was studied, by intravenous injection. Three mice were injected at dose levels 200, 500 and 1000 mg/kg, and observed for symptoms including death or weight lost during the following 14 days. The MTD was established at 200 mg/kg.

athymic nude mice [4] = test: as above; assay type: in vivo; conditions: 200 mg/kg single i.v., following 14 days, compared to untreated control animals
Procedure: as §1

athymic nude mice [5] = test: In vivo tolerability, repeated intravenous injections (mouse weight); conditions: 30 mg/kg i.v., 9 doses (days 1, 3, 5, 8, 10, 12, 29, 31, 33), weight until day 40
Procedure: Upon the establishment of the MTD of SN38-linker A-MiniAp4 (Ia) at single i.v, we compared mean weight of mice treated with irinotecan at a clinically relevant multi-dose regimen, and SN38-linker A-MiniAp4 (Ia)at an equimolar dose. Briefly, mice were treated with either irinotecan 10 mg/kg (15 doses, on days 1-5, 8-12 and 29-33), by the intraperitoneal (i.p.) route, or with a SN38-linker A-MiniAp4 (Ia) 30 mg/kg (9 doses, on days 1, 3, 5, 8, 10, 12, 29, 31, 33), intravenously (i.v.). This regimen was considered the maximum feasible number of i.v. injections in mice. Control mice were treated with saline i.p. on days 1-5, 8-12 and 29-33.
Mouse weight was measured until day 40 and mean and SD values are represented for each group in FIG. 19. […] Weight of SN38-linker A-MiniAp4 (Ia) (Ia) treated mice was similar to that of mice treated with clinically relevant dosages of irinotecan.

[6] = Stability in human serum at 37° C. in vitro; assay type: in vitro ADME; conditions: 200 μM in HBSS, 90% human serum
Procedure: Regarding to the stability in human serum of the SN38-linker A-MiniAp4 (Ia) (example 7), it was incubated at a concentration of 200 μM in buffer HBSS at 37° C. in the presence of 90% human serum. At a range of times, 100 μL aliquots were collected to which 400 μL cold methanol was added in order to precipitate the serum proteins. The samples were centrifuged at 3000 rpm at 4° C. during 30 min, filtered and analyzed by UPLC-PDA and UPLC-MS to determine the degree of degradation of SN38-Linker A-MiniAp4 (Ia).

[7] = Stability in human plasma at 37° C. in vitro; assay type: in vitro ADME
Procedure: (§2) To assess the stability of the SN38-linker A-MiniAp4 (Ia) (example 7) in human, mouse, dog and rat plasma at 37° C., the compound was prepared at 200 μM in plasma samples in triplicates at each timepoint (0 h, 1 h, 4 h, 8 h and 24 h) for each species. Once the incubation was finalised, plasma proteins were immediately precipitated by adding chilly methanol (ratio 4:1, methanol:plasma) and tubes were shacked for few seconds (vortex). Samples were centrifuged at 3,000 rpm for 30 minutes at 4° C., supernatants were collected, transferred to the injection plate and injected to LC-MS system.
(§3) Compound recovery was determined by comparing the analyte response in a biological sample that is spiked with the analyte and processed, with the response in a methanol sample that is spiked with the analyte and processed.
(§4) Plasma stability assay was performed using blank plasma from untreated volunteers/animals. K2-EDTA was used as anticoagulant. Human blank plasma used was obtained from Hospital Sant Pau, mouse blank plasma used was obtained from Janvier, dog blank plasma used was obtained from Isoquimen and rat blank plasma used were obtained from Draconis Pharma.
To assess the stability of the G2B-001 lineal (Ib) (example 16) in human plasma at 37° C., the compound was prepared at 200 µM in plasma samples in triplicates at each timepoint (0 h, 0.5 h, 1 h, 2 h, 4 h, 8 h and 24 h). Once the incubation was finalised, plasma proteins were immediately precipitated by adding chilly methanol (ratio 4:1, methanol:plasma) and tubes were shacked for few seconds (vortex). Samples were centrifuged at 3,000 rpm for 30 minutes at 4° C., supernatants were collected, transferred to the injection plate and injected to LC-MS system. Compound recovery was determined by comparing the analyte response in a biological sample that is spiked with the analyte and processed, with the response in a methanol sample that is spiked with the analyte and processed.
Plasma stability assay was performed using blank plasma from untreated volunteers. K2-EDTA was used as anticoagulant. Human blank plasma used was obtained from Hospital Sant Pau.

[8] = Stability in mouse plasma at 37° C. in vitro; assay type: in vitro ADME
Procedure: as §2, §3, §4

[9] = Stability in dog plasma at 37° C. in vitro; assay type: in vitro ADME
Procedure: as §2, §3, §4

[10] = Stability in rat plasma at 37° C. in vitro; assay type: in vitro ADME
Procedure: as §2, §3, §4

## CCc1c2c(nc3ccc(O)cc13)-c1cc3c(c(=O)n1C2)COC(=O)[C@@]3(CC)OC(=O)CCCCn1cc(CCCC(=O)NCCCOCCOCCOCCCNC(=O)CCC(=O)N[C@H]2CNC(=O)C[C@@H](C(N)=O)NC(=O)[C@H](CC(C)C)NC(=O)[C@H](C)NC(=O)[C@H]([C@@H](C)O)NC(=O)[C@H](CCC(=O)O)NC(=O)[C@@H]3CCCN3C(=O)[C@H](C)NC(=O)[C@H](CCCCN)NC2=O)nn1 [SN38-linker A-MiniAp4 (Ia)] ({X1-Suc}-[Dap]KAPETALD-NH2; lactam 1-9)
[1]; versus literature solubility of SN38 (Mol. Pharmaceutics, 2016, 13, 379-390)
  solubility in water relative to the solubility in water described for SN38: more than 400 fold
[1]; water, 25 mg dissolved in H2O, completely transparent solution
  solubility: > 5000 µg/mL
[2]; 37 °C, pH 7.4, aqueous buffer, read-out: Turbidity aqueous solubility, Estimated precipitation range, Lower bond
  solubility at 2 hr: 30 µM (≈ 54.8 µg/mL)
[2]; 37 °C, pH 7.4, aqueous buffer, read-out: Turbidity aqueous solubility, Estimated precipitation range, Upper bond
  solubility at 2 hr: 100 µM (≈ 183 µg/mL)
[2]; aqueous buffer, read-out: Turbidity aqueous solubility, Estimated precipitation range, Calculated mid-range
  solubility at 2 hr: 65 µM (≈ 119 µg/mL)
[2]; up to 100 micromolar
  solubility problems in turbidimetric solubility test: No solubility problems
[3]
  MTD at 14 days: 200 mg/kg
Athymic nude mice [4]
  symptoms including death or weight lost at the MTD: survived and did not show immediate symptoms of distress or significant weight lost
Athymic nude mice [5]
  mouse weight versus controls: did not lose significant weight
[6]
  half-life at 200 μM: > 24 h
[6]; 24 h
  degree of degradation in human serum: No significant degradation
[7]
  half-life at 200 μM: > 24 h
[7]; 24 h, read-out: % Recovery after 24 h in human plasma
  recovery at 24 h, 200 μM: 65.1%
[8]
  half-life at 200 μM: 8 to 24 h
[8]; 24 h, read-out: % Recovery after 24 h in mouse plasma
  recovery at 24 h, 200 μM: 57.1%
[9]
  half-life at 200 μM: 8 to 24 h
[9]; 24 h, read-out: % Recovery after 24 h in dog plasma
  recovery at 24 h, 200 μM: 68.3%
[10]
  half-life at 200 μM: > 24 h
[10]; 24 h, read-out: % Recovery after 24 h in rat plasma
  recovery at 24 h, 200 μM: 61.2%
